In the Immune Epitope Database (IEDB):

Assays:
HLA-B*07:02 = assay: IEDB peptide-MHC binding, purified MHC/direct/fluorescence; filed as Kd, often an IC50 or EC50 that approximates it; ≥ and ≤ were set here for values at or beyond the usual limits of such assays; settings: source organism: Burkholderia mallei
HLA-B*15:01 [1] = assay: as above; settings: source organism: Burkholderia mallei ATCC 23344
HLA-B*51:01 [2] = assay: as above; settings: source organism: Burkholderia mallei
HLA-A*02:01 [3] = assay: IEDB peptide-MHC binding, purified MHC/competitive/radioactivity; filed as Kd, often an IC50 or EC50 that approximates it; ≥ and ≤ were set here for values at or beyond the usual limits of such assays
HLA-A*02:03 [4] = assay: as above
HLA-A*02:17 = assay: as above
HLA-A*02:06 = assay: as above
HLA-A*02:01 [5] = assay: IEDB peptide-MHC binding, purified MHC/competitive/fluorescence; filed as Kd, often an IC50 or EC50 that approximates it; ≥ and ≤ were set here for values at or beyond the usual limits of such assays
HLA-A*02:03 [6] = assay: as above
HLA-A*02:11 = assay: as above
HLA-A*02:12 = assay: as above
HLA-A*02:16 = assay: as above
HLA-A*02:19 = assay: as above
HLA-A*03:01 = assay: as above
HLA-A*24:03 = assay: as above; settings: source organism: Cryptosporidium parvum Iowa II
HLA-A*26:01 = assay: as above
HLA-A*29:02 = assay: as above; settings: source organism: Cryptosporidium parvum Iowa II
HLA-A*69:01 = assay: as above
HLA-B*15:01 [7] = assay: as above; settings: source organism: Cryptosporidium parvum Iowa II
HLA-B*15:17 = assay: as above; settings: source organism: Cryptosporidium parvum Iowa II
HLA-B*18:01 = assay: as above; settings: source organism: Cryptosporidium parvum Iowa II
HLA-B*27:03 = assay: as above
HLA-B*39:01 = assay: as above
HLA-B*46:01 = assay: as above; settings: source organism: Cryptosporidium parvum Iowa II
HLA-B*51:01 [8] = assay: as above; settings: source organism: Cryptosporidium parvum Iowa II
HLA-B*57:01 = assay: as above
HLA-A*32:01 = assay: IEDB peptide-MHC binding, purified MHC/competitive/radioactivity; filed as Kd, often an IC50 or EC50 that approximates it; ≥ and ≤ were set here for values at or beyond the usual limits of such assays; settings: source organism: Dengue virus 4 Philippines/H241/1956
HLA-B*58:01 = assay: as above
HLA-B*51:01 [9] = assay: as above; settings: source organism: Dengue virus 2 Jamaica/1409/1983
HLA-B*35:01 = assay: as above; settings: source organism: Dengue virus 3 Martinique/1243/1999
HLA-B*53:01 = assay: as above; settings: source organism: Dengue virus 3 Martinique/1243/1999
[10] = source organism: Dengue virus 1 Singapore/S275/1990
[11] = source organism: Dengue virus 1 Brazil/97-11/1997
[12] = source organism: Cryptosporidium parvum Iowa II
[13] = source organism: Vibrio vulnificus YJ016
[14] = source organism: Dengue virus 2 Jamaica/1409/1983
[15] = source organism: Dengue virus 3 Martinique/1243/1999
[16] = source organism: Dengue virus 1 Nauru/West Pac/1974
[17] = source organism: Dengue virus 3 China/80-2/1980

Q: Which Kd (HLA-B*07:02) does the source give for KLAQVRRAM here?
A: 6 nM

Q: And the Kd (HLA-B*15:01 [1])?
A: 27 nM

Q: And the Kd (HLA-B*51:01 [2])?
A: ≥ 20000 nM

Q: Which results are given for VLMLVAHYA?
A: Kd (HLA-A*02:01 [3]; [10]): 6.67 nM; Kd (HLA-A*02:03 [4]; [11]): 2.73 nM; Kd (HLA-A*02:17; [10]): 13200 nM

Q: What does the source list for LMLLALIAV?
A: Kd (HLA-A*02:01 [3]; [10]): 23.3 nM; Kd (HLA-A*02:06; [11]): 8.08 nM; Kd (HLA-A*02:17; [10]): 553 nM

Q: How did the Kd (HLA-A*02:01 [5]; [12]) turn out when DLAQDPMLI was run?
A: ≥ 20000 nM

Q: What about the Kd (HLA-A*02:03 [6]; [12]) of the same sequence?
A: ≥ 20000 nM

Q: What about the Kd (HLA-A*02:11; [12]) of the same sequence?
A: ≥ 20000 nM

Q: What about the Kd (HLA-A*02:12; [12]) of the same sequence?
A: ≥ 20000 nM

Q: What about the Kd (HLA-A*02:16; [12]) of the same sequence?
A: 397 nM

Q: What about the Kd (HLA-A*02:19; [12]) of the same sequence?
A: ≥ 20000 nM

Q: What about the Kd (HLA-A*03:01; [12]) of the same sequence?
A: ≥ 20000 nM

Q: And the Kd (HLA-A*24:03)?
A: ≥ 20000 nM

Q: What about the Kd (HLA-A*26:01; [12]) of the same sequence?
A: ≥ 20000 nM

Q: And the Kd (HLA-A*29:02)?
A: ≥ 20000 nM

Q: What about the Kd (HLA-A*69:01; [12]) of the same sequence?
A: ≥ 20000 nM

Q: What about the Kd (HLA-B*15:01 [7]) of the same sequence?
A: ≥ 20000 nM

Q: What about the Kd (HLA-B*15:17) of the same sequence?
A: ≥ 20000 nM

Q: And the Kd (HLA-B*18:01)?
A: ≥ 20000 nM

Q: And the Kd (HLA-B*27:03; [12])?
A: ≥ 20000 nM

Q: What about the Kd (HLA-B*39:01; [12]) of the same sequence?
A: ≥ 20000 nM

Q: And the Kd (HLA-B*46:01)?
A: ≥ 20000 nM

Q: What about the Kd (HLA-B*51:01 [8]) of the same sequence?
A: ≥ 20000 nM

Q: And the Kd (HLA-B*57:01; [12])?
A: ≥ 20000 nM

Q: With VTFGARASF as the sequence, how does the Kd (HLA-A*02:01 [5]; [13]) read?
A: ≥ 20000 nM

Q: What about the Kd (HLA-A*02:03 [6]; [13]) of the same sequence?
A: ≥ 20000 nM

Q: What about the Kd (HLA-A*02:11; [13]) of the same sequence?
A: ≥ 20000 nM

Q: And the Kd (HLA-A*02:12; [13])?
A: ≥ 20000 nM

Q: And the Kd (HLA-A*02:16; [13])?
A: ≥ 20000 nM

Q: And the Kd (HLA-A*02:19; [13])?
A: ≥ 20000 nM

Q: What about the Kd (HLA-A*03:01; [13]) of the same sequence?
A: ≥ 20000 nM

Q: What about the Kd (HLA-A*26:01; [13]) of the same sequence?
A: ≥ 20000 nM

Q: What about the Kd (HLA-A*69:01; [13]) of the same sequence?
A: ≥ 20000 nM

Q: And the Kd (HLA-B*27:03; [13])?
A: ≥ 20000 nM

Q: And the Kd (HLA-B*39:01; [13])?
A: ≥ 20000 nM

Q: And the Kd (HLA-B*57:01; [13])?
A: 97.4 nM

Q: RTVFFVLMM was tested. Which Kd (HLA-A*32:01) did it give?
A: ≥ 51300 nM

Q: What about the Kd (HLA-B*58:01; source organism: Dengue virus 4 Philippines/H241/1956) of the same sequence?
A: 635 nM

Q: FLFLMSGKGI was tested. Which Kd (HLA-A*02:01 [3]; [14]) did it give?
A: 39.6 nM

Q: And the Kd (HLA-A*02:03 [4]; [14])?
A: 11.5 nM

Q: What about the Kd (HLA-A*02:17; [14]) of the same sequence?
A: 1320 nM

Q: And the Kd (HLA-B*51:01 [9])?
A: 5580 nM

Q: How did the Kd (HLA-B*35:01) turn out when IASAIVLEF was run?
A: 8.89 nM

Q: What about the Kd (HLA-B*53:01) of the same sequence?
A: 7.65 nM

Q: What about the Kd (HLA-B*58:01; [15]) of the same sequence?
A: 2.88 nM

Q: For MLDVDLHPA, which Kd (HLA-A*02:01 [3]; [16]) is on record?
A: 75.2 nM

Q: And the Kd (HLA-A*02:06; [16])?
A: 18 nM

Q: What about the Kd (HLA-A*02:17; [16]) of the same sequence?
A: 19800 nM

Q: MALKLITQF was tested. Which Kd (HLA-B*35:01) did it give?
A: 1.25 nM

Q: What about the Kd (HLA-B*53:01) of the same sequence?
A: 22.4 nM

Q: What about the Kd (HLA-B*58:01; [15]) of the same sequence?
A: 2.16 nM

Q: How did the Kd (HLA-A*02:01 [3]; [14]) turn out when ALIFILLTAV was run?
A: 0.498 nM

Q: What about the Kd (HLA-A*02:03 [4]; [14]) of the same sequence?
A: 13.2 nM

Q: And the Kd (HLA-A*02:06; [14])?
A: 56.8 nM

Q: And the Kd (HLA-A*02:17; [14])?
A: ≥ 39400 nM

Q: Which results are given for YLDVDLHPA?
A: Kd (HLA-A*02:01 [3]; [17]): 4.42 nM; Kd (HLA-A*02:06; [15]): 37.2 nM; Kd (HLA-A*02:17; [17]): 1890 nM
